In publication PMC8063735:

B1: Drosophila melanogaster Hsp110 (Hsc70cb-encoded protein) (natural protein)
chain: MSVIGIDFGNESCYVAAARSGGIETLANDYSLRATPSFVAFDGKKRIIGVAAKNQQVTNMKNTVGGFKRLLGRKFNDPHVQHELTSIPARVEARGDGSIGIKVNYLGEDQHFGPEQLTAMLFTKLKETSAAAMQTQVNDCVIACPVFFTNAERKALLDAAQIAGLNVLRLMNETTATALAYGFYKNDLFEDKPRNVIFVDFGHSSLQASACAFTKGKLKMLASTWDQIGGRDIDLALGDYFAKEFQERYKINAKTNARANLRLLTEIEKLKKQMSANSTKLPLNIECFLDDIDVSSSMQRSQMEELCAPVLQRVEQTFKRLLAESKLQLDDIHSVEIVGGSSRIPSVKQLIEQVFNKPASTTLNQDEAVSRGAALQCAIMSPAVRVREFGVTDIQNYAVKVLWDSEGSAAPGEIEIFPQYHASPFSRLLTINRKGPFNVSIVYGQQVPYPDQTIGVWKVKDVKPTERGEGQDVKLKVRINNNGIVLISSATLVEKKEAEEAAAAAEQAASEEKPGDQTNNTGEPADGQQEGADKKKKASKATELPLECTTHGFSPVDLSNYTQQESKMIGNDQKETERIDAKNALEEFVYDMRNKLQGGPFERYVVEAEREKIVSQLNDLENWLYEDGEDCERDIYTSRLQALHQKTDPIKLRASDYEQGPAAFDELKNSIAIARLAVAEFRKGVPKYDHLTETEFINISETADKAQSWLDANLPKFTQSPRTADSPVQISAVRQEVQTLNSCVSSVINRAKPKPTPAKTATPPKDEANAEQNGGEPAANSGDKMDVDNNGQSAAGNDPSMEVE

Key:
citrate synthase [1] = molecular target: T1, citrate synthase (UniProt P00889)
T1 sequence: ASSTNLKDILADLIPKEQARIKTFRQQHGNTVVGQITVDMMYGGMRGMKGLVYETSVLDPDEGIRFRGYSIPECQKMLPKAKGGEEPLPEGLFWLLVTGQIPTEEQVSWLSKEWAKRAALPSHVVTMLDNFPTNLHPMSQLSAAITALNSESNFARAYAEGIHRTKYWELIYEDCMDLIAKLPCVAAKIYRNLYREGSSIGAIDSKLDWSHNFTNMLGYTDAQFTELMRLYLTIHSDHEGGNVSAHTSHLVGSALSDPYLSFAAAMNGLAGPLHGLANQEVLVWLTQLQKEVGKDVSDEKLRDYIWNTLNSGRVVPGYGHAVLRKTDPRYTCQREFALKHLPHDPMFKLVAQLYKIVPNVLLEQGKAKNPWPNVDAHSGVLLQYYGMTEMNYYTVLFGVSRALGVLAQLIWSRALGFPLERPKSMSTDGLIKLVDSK

citrate synthase [2] = molecular target: T1, citrate synthase; remark: listed apart in the source

Molecule	differential centrifugation after the light scatter assay: per cent of CS in the pellet (citrate synthase [1])	suppression of aggregation of chemically denatured CS, light scattering at 320 nm, chaperone to substrate 1:1, 2:1 and 4:1 (citrate synthase [2])
Hsp110^ΔSBDβ (from UniProt Q9VUC1 1-804) (natural protein)	4%	–
B1	–	50%
